Results: article PMC2121029
Where two headings read alike, the source gives them in different places.

Assays:
[1] = target: beta-actin from bovine erythrocytes (bovine) (UniProt P60712); experiment: kinetic simulation
[2] = target: beta-actin from bovine erythrocytes (bovine) (UniProt P60712); experiment: shift of the critical concentration for actin polymerization
[3] = target: beta-actin from bovine erythrocytes (bovine) (UniProt P60712)
[4] = target: alpha-actin from chicken skeletal muscle (chicken) (UniProt P68139); experiment: actin uncapping assay
[5] = target: alpha-actin from chicken skeletal muscle (chicken) (UniProt P68139); experiment: kinetic simulation

Row | koff [1] [s⁻¹] | kon [1] [M⁻¹ s⁻¹] | Kd [2] [nM] | koff [3] [s⁻¹] | half-life of a capped barbed end with PIP2 [4] [s] | koff [5] [s⁻¹] | Substance
1 | 0.00095 | 3.9e+06 | 0.08 | 0.00031 |  |  | capping protein of chicken kidney and brain containing the beta2 subunit (CP-beta2) (from UniProt P13127;P28497;P14315-2) (complex)
2 |  |  |  |  | 46 | 0 | capping protein of chicken skeletal (pectoral) muscle containing the beta1 subunit (CP-beta1) (from UniProt P13127;P28497;P14315-1) (complex)
